Biological target: Cdh1 (UniProt Q9R1K5)
Experiment: Flag IP of Cdh1, HA-FMRP blot
Conditions: reference: wild type FMRP; sites S499

- binding against the reference: stronger
Substance: FMRP (from UniProt P35922) S499A

From publication PMC4492466
